Laboratory results published in publication PMC4832279, “Characterisation of Shigella Spa33 and Thermotoga FliM/N reveals a new model for C‐ring assembly in T3SS” (Molecular Microbiology, 2015).
Several values for one entry are separate records, joined by “and”; a condition that tells them apart may be missing. Equal entries are not always repeated.

Columns and labels:
[1] = target: Spa33-FL(CTD) (construct comprising only SpoA1 and SpoA2 of Spa33-FL) (Shigella flexneri); test: native MS; purified proteins or co-expressed, co-purified complexes, buffer-exchanged in 200 mM ammonium acetate pH 7.5; non-denaturing conditions; Synapt HDMS
[2] = target: Spa33-FL/Ctrx2 (1:2 complex of Spa33-FL and Spa33-Ctrx) (Shigella flexneri) (UniProt P0A1K9); test: as above
[3] = target: Spa33-Cmbp (Spa33-C with a C-terminal maltose binding protein fusion) (Shigella flexneri) (UniProt P0A1K9); test: as above
[4] = target: Spa33-FL expressed from pETDuet-Spa33ΔRBS (N-terminal His-tag) (Shigella flexneri) (UniProt P0A1K9); test: as above
[5] = target: Spa33-FL/Cstrep2 (1:2 complex of Spa33-FL and Spa33-Cstrep) (Shigella flexneri) (UniProt P0A1K9); test: as above
[6] = target: Spa33-C (co-expressed from pRSFDuet-Spa33-C with Spa33-FL(CTD)) (Shigella flexneri) (UniProt P0A1K9); test: as above
[7] = target: Thermotoga maritima FliM with an N-terminal His-tag (Thermotoga maritima) (UniProt Q9WZE6); test: as above
[8] = target: Thermotoga maritima FliN (C-terminal 132 residues of FliY) (Thermotoga maritima); test: as above
[9] = target: Spa33-C (expressed alone from pET28b-Spa33-C, tag removed, 15N-labelled) (Shigella flexneri) (UniProt P0A1K9); test: as above
[10] = target: Spa33-FL/C2(Y221R) (1:2 complex with Y221R in Spa33-FL and in both copies of Spa33-C) (Shigella flexneri) (UniProt P0A1K9); test: as above
[11] = target: Spa33-Cstrep (Spa33-C with an eight residue C-terminal Strep-tag) (Shigella flexneri) (UniProt P0A1K9); test: as above
[12] = target: Spa33-FL/C2 (1:2 complex of His-Spa33-FL and Spa33-C) (Shigella flexneri) (UniProt P0A1K9); test: as above
[13] = target: Spa33-Ctrx (Spa33-C with a C-terminal thioredoxin fusion) (Shigella flexneri) (UniProt P0A1K9); test: as above
[14] = target: the molecule itself; test: crystal structure; 2.3 Å; 10 mg/ml Spa33 208-293, 21°C, sitting drop, 10% isopropanol, 0.1 M Na HEPES pH 7.0, 10% PEG 4000
[15] = target: T1, Spa33-FL (full-length Spa33 with an N-terminal His-tag) (Shigella flexneri, UniProt P0A1K9 1-293); test: native MS; purified proteins or co-expressed, co-purified complexes, buffer-exchanged in 200 mM ammonium acetate pH 7.5; non-denaturing conditions; Synapt HDMS; conditions: both partners purified
T1 construct: Spa33 (SctQ), Shigella flexneri, full length; 293 residues by the printed range 192-293 at the extreme C-terminus; also called SctQ; His-Spa33-FL; source: E. coli B834 (DE3), from pET28b-Spa33, purified with Spa33-C (Ni-NTA, SEC)
T1 sequence: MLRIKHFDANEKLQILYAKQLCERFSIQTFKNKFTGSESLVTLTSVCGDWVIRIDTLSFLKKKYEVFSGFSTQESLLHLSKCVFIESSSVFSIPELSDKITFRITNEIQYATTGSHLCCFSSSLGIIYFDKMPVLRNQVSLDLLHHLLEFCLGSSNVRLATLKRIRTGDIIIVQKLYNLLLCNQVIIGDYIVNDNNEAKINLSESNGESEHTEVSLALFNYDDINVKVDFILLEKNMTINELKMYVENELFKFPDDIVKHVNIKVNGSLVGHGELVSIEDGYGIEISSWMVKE

[16] = target: the molecule itself; test: as above
[17] = target: T2, Spa33-FL(Y221R) with an N-terminal His-tag (Shigella flexneri, UniProt P0A1K9 1-293, Y221R); test: as above; conditions: both partners purified
T2 construct: Spa33 (SctQ), Shigella flexneri, full length, Y221R in the SpoA2 domain; also called Spa33-FL of Spa33-FL/C2(Y221R); source: E. coli B834 (DE3), from pET28b-Spa33(Y221R), purified with Spa33-C(Y221R) (Ni-NTA, SEC)
T2 sequence: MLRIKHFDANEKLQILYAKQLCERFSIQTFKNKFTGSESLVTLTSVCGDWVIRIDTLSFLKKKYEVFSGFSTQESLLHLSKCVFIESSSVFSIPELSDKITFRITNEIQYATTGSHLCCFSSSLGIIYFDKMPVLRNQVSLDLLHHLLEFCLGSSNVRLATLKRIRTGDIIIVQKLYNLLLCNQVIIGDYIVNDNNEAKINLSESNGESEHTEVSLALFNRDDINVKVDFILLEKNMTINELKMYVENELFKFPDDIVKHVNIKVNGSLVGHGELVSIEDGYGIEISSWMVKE

Thermotoga maritima FliM with an N-terminal His-tag (Thermotoga maritima), sequence (Q9WZE6 whole entry): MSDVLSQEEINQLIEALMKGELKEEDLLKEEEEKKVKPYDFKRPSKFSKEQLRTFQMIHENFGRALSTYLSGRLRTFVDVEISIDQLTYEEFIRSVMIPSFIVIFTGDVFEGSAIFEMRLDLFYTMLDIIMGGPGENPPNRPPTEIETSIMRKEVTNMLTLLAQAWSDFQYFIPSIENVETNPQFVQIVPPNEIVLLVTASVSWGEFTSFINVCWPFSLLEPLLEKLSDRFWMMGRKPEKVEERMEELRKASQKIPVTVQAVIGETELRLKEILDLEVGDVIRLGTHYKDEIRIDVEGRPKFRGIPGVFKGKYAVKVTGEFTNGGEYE

Spa33-FL(CTD) (construct comprising only SpoA1 and SpoA2 of Spa33-FL) (domain or fragment)
stoichiometry N [1]: 2 and 3

Spa33-FL/Ctrx2 (1:2 complex of Spa33-FL and Spa33-Ctrx) (from UniProt P0A1K9 1-293; P0A1K9 192-293)
stoichiometry N [2]: 2

Spa33-Cmbp (Spa33-C with a C-terminal maltose binding protein fusion) (from UniProt P0A1K9 192-293) (domain or fragment)
stoichiometry N [3]: 2 | stoichiometry N [4]: 2

Spa33-FL/Cstrep2 (1:2 complex of Spa33-FL and Spa33-Cstrep) (from UniProt P0A1K9 1-293; P0A1K9 192-293)
stoichiometry N [5]: 2 and 4

Spa33-C (co-expressed from pRSFDuet-Spa33-C with Spa33-FL(CTD)) (from UniProt P0A1K9 192-293) (domain or fragment)
stoichiometry N [6]: 2 | stoichiometry N [1]: 2

Thermotoga maritima FliY, full length (natural protein)
stoichiometry N [7]: 1

Thermotoga maritima FliN (C-terminal 132 residues of FliY) (domain or fragment)
stoichiometry N [7]: 3 | stoichiometry N [8]: 2

Spa33-C (expressed alone from pET28b-Spa33-C, tag removed, 15N-labelled) (from UniProt P0A1K9 192-293) (domain or fragment)
stoichiometry N [9]: 2

Spa33-FL/C2(Y221R) (1:2 complex with Y221R in Spa33-FL and in both copies of Spa33-C) (from UniProt P0A1K9 1-293; P0A1K9 192-293)
stoichiometry N [10]: 2

Spa33-Cstrep (Spa33-C with an eight residue C-terminal Strep-tag) (from UniProt P0A1K9 192-293) (domain or fragment)
stoichiometry N [11]: 2 | stoichiometry N [4]: 2

Spa33-FL/C2 (1:2 complex of His-Spa33-FL and Spa33-C) (from UniProt P0A1K9 1-293; P0A1K9 192-293)
stoichiometry N [12]: 2 and 4 and 6

Spa33-Ctrx (Spa33-C with a C-terminal thioredoxin fusion) (from UniProt P0A1K9 192-293) (domain or fragment)
stoichiometry N [13]: 2 | stoichiometry N [4]: 2

B1: Spa33 208-293 (C-terminal 86 residues of Spa33) (domain or fragment)
chain: ESEHTEVSLALFNYDDINVKVDFILLEKNMTINELKMYVENELFKFPDDIVKHVNIKVNGSLVGHGELVSIEDGYGIEISSWMVKE
notes: Spa33 (SctQ), Shigella flexneri, residues 208-293; Two copies of the dimer in the asymmetric unit; also called SpoA2 domain of Spa33; source: E. coli B834 (DE3), purified (Ni-NTA, carboxypeptidase A, SEC); not shown: His tag, C-terminal, cleaved
binding result [14]: binds

B2: Spa33-C (alternative translation product of spa33, residues 192-293) (domain or fragment)
chain: MNDNNEAKINLSESNGESEHTEVSLALFNYDDINVKVDFILLEKNMTINELKMYVENELFKFPDDIVKHVNIKVNGSLVGHGELVSIEDGYGIEISSWMVKE
modifications: formylmethionine at the N-terminus (expected from the measured mass)
notes: Spa33 (SctQ), Shigella flexneri, residues 192-293; translated from an internal GTG start codon; Forms a homodimer (Spa33-C2) in the native mass spectrum; also called short variant of Spa33; source: E. coli B834 (DE3), made from the internal start site of pET28b-Spa33, co-purified with His-Spa33-FL (Ni-NTA, SEC)
stoichiometry N [15]: 2 | stoichiometry N [16]: 2

B3: Spa33-C(Y221R) (domain or fragment)
chain: MNDNNEAKINLSESNGESEHTEVSLALFNRDDINVKVDFILLEKNMTINELKMYVENELFKFPDDIVKHVNIKVNGSLVGHGELVSIEDGYGIEISSWMVKE
modifications: formylmethionine at the N-terminus (as told for wild-type Spa33-C)
notes: Spa33 (SctQ), Shigella flexneri, residues 192-293 (Spa33-C), Y221R; also called Spa33-C of Spa33-FL/C2(Y221R)
stoichiometry N [17]: 2
